Experiment [1] has as its target T1, Myostatin (R&D Systems, Catalogue number 788-G8-010/CF) (UniProt O14793 267-375).
T1 sequence (looked up): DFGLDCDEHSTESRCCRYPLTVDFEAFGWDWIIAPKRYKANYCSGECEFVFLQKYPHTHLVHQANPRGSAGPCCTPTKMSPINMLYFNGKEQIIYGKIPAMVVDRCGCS
The experiment in a line: cell-based or functional assay.

Experiment [2] addresses T2, Activin A (R&D Systems, Catalog number 338-AC-050 CF) (UniProt P08476 311-426).
T2 sequence (looked up): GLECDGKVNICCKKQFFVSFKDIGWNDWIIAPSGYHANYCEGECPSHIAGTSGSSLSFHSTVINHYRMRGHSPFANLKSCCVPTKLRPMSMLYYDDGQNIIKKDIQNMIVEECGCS
As to the kind of experiment: cell-based or functional assay.

B1: ActRIIB-Fc protein (R&D Systems, Catalogue number 339-RBB-100) (Fc fusion, UniProt Q13705 19-134, looked up, not shown: a dimerising Fc or GST)
chain: SGRGEAETRECIYYNANWELERTNQSGLERCEGEQDKRLHCYASWRNSSGTIELVKKGCWLDDFNCYDRQECVATEENPQVYFCCCEGNFCNERFTHLPEAGGPEVTYEPPPTAPT
In the case of B1, the “Myostatin IC50 (nM), luciferase gene reporter assay (Smad3, A204 cells)” value in experiment [1] was found to be 0.5 nM. Further, the “Activin A IC50 (nM), luciferase gene reporter assay (Smad3, A204 cells)” value in experiment [2] came to 0.5 nM.

B2: FS315K(76,81,82)E-mFc (Fc fusion, not shown: a dimerising Fc or GST)
chain: GNCWLRQAKNGRCQVLYKTELSKEECCSTGRLSTSWTEEDVNDNTLFKWMIFNGGAPNCIPCKETCENVDCGPGKECRMNEENKPRCVCAPDCSNITWKGPVCGLDGKTYRNECALLKARCKEQPELEVQYQGRCKKTCRDVFCPGSSTCVVDQTNNAYCVTCNRICPEPASSEQYLCGNDGVTYSSACHLRKATCLLGRSIGLAYEGKCIKAKSCEDIQCTGGKKCLWDFKVGRGRCSLCDELCPDSKSDEPVCASDNATYASECAMKEAACSSGVLLEVKHSGSCNSISEDTEEEEEDEDQDYSFPISSILEW
In the case of B2, the “Myostatin IC50 (nM), luciferase gene reporter assay (Smad3, A204 cells)” value in experiment [1] was found to be 0.7 nM. Further, the “Activin A IC50 (nM), luciferase gene reporter assay (Smad3, A204 cells)” value in experiment [2] is 0.8 nM.

These data come from patent US20200247856A1 (SHIRE HUMAN GENETIC THERAPIES, published 2020).
